Reference: article PMC3863616 (Journal of thrombosis and haemostasis : JTH, 2009)
Where two headings read alike, the source gives them in different places.

What was measured:
[1] = target: VWF (plastic-immobilized) (Homo sapiens) (UniProt P04275); settings: cited from earlier work
[2] = target: VWF (antibody-immobilized) (Homo sapiens) (UniProt P04275); settings: cited from earlier work
[3] = target: Purified recombinant von Willebrand factor (UniProt P04275); test: co-IP + ELISA
[4] = target: Endogenous von Willebrand factor of normal human plasma (human (endogenous in normal human …, UniProt P04275 764-2813)); test: co-IP + ELISA
[5] = target: T1, Purified recombinant von Willebrand factor (UniProt P04275 764-2813); test: co-IP + ELISA
[6] = target: T1, Purified recombinant von Willebrand …; test: co-IP + ELISA; remark: listed apart in the source

ADAMTS13 (from UniProt Q76LX8)
Kd [1]: 14 nM | Kd [2]: 90 nM

Human recombinant ADAMTS13 truncated after the eighth TSR (domain or fragment)
Kd [3]: 100 nM

B1: Endogenous ADAMTS13 of normal human plasma (enzyme, UniProt Q76LX8 75-1427, looked up)
chain: AAGGILHLELLVAVGPDVFQAHQEDTERYVLTNLNIGAELLRDPSLGAQFRVHLVKMVILTEPEGAPNITANLTSSLLSVCGWSQTINPEDDTDPGHADLVLYITRFDLELPDGNRQVRGVTQLGGACSPTWSCLITEDTGFDLGVTIAHEIGHSFGLEHDGAPGSGCGPSGHVMASDGAAPRAGLAWSPCSRRQLLSLLSAGRARCVWDPPRPQPGSAGHPPDAQPGLYYSANEQCRVAFGPKAVACTFAREHLDMCQALSCHTDPLDQSSCSRLLVPLLDGTECGVEKWCSKGRCRSLVELTPIAAVHGRWSSWGPRSPCSRSCGGGVVTRRRQCNNPRPAFGGRACVGADLQAEMCNTQACEKTQLEFMSQQCARTDGQPLRSSPGGASFYHWGAAVPHSQGDALCRHMCRAIGESFIMKRGDSFLDGTRCMPSGPREDGTLSLCVSGSCRTFGCDGRMDSQQVWDRCQVCGGDNSTCSPRKGSFTAGRAREYVTFLTVTPNLTSVYIANHRPLFTHLAVRIGGRYVVAGKMSISPNTTYPSLLEDGRVEYRVALTEDRLPRLEEIRIWGPLQEDADIQVYRRYGEEYGNLTRPDITFTYFQPKPRQAWVWAAVRGPCSVSCGAGLRWVNYSCLDQARKELVETVQCQGSQQPPAWPEACVLEPCPPYWAVGDFGPCSASCGGGLRERPVRCVEAQGSLLKTLPPARCRAGAQQPAVALETCNPQPCPARWEVSEPSSCTSAGGAGLALENETCVPGADGLEAPVTEGPGSVDEKLPAPEPCVGMSCPPGWGHLDATSAGEKAPSPWGSIRTGAQAAHVWTPAAGSCSVSCGRGLMELRFLCMDSALRVPVQEELCGLASKPGSRREVCQAVPCPARWQYKLAACSVSCGRGVVRRILYCARAHGEDDGEEILLDTQCQGLPRPEPQEACSLEPCPPRWKVMSLGPCSASCGLGTARRSVACVQLDQGQDVEVDEAACAALVRPEASVPCLIADCTYRWHVGTWMECSVSCGDGIQRRRDTCLGPQAQAPVPADFCQHLPKPVTVRGCWAGPCVGQGTPSLVPHEEAAAPGRTTATPAGASLEWSQARGLLFSPAPQPRRLLPGPQENSVQSSACGRQHLEPTGTIDMRGPGQADCAVAIGRPLGEVVTLRVLESSLNCSAGDMLLLWGRLTWRKMCRKLLDMTFSSKTNTLVVRQRCGRPGGGVLLRYGSQLAPETFYRECDMQLFGPWGEIVSPSLSPATSNAGGCRLFINVAPHARIAIHALATNMGAGTEGANASYILIRDTHSLRTTAFHGQQVLYWESESSQAEMEFSEGFLKAQASLRGQYWTLQSWVPEMQDPQSWKGKEGT
stoichiometry N [4]: 0.004 ADAMTS13 per VWF (molar ratio)

B2: Human recombinant ADAMTS13 with the active site mutation E225Q (enzyme, UniProt Q76LX8 75-1427, looked up)
chain: AAGGILHLELLVAVGPDVFQAHQEDTERYVLTNLNIGAELLRDPSLGAQFRVHLVKMVILTEPEGAPNITANLTSSLLSVCGWSQTINPEDDTDPGHADLVLYITRFDLELPDGNRQVRGVTQLGGACSPTWSCLITEDTGFDLGVTIAHQIGHSFGLEHDGAPGSGCGPSGHVMASDGAAPRAGLAWSPCSRRQLLSLLSAGRARCVWDPPRPQPGSAGHPPDAQPGLYYSANEQCRVAFGPKAVACTFAREHLDMCQALSCHTDPLDQSSCSRLLVPLLDGTECGVEKWCSKGRCRSLVELTPIAAVHGRWSSWGPRSPCSRSCGGGVVTRRRQCNNPRPAFGGRACVGADLQAEMCNTQACEKTQLEFMSQQCARTDGQPLRSSPGGASFYHWGAAVPHSQGDALCRHMCRAIGESFIMKRGDSFLDGTRCMPSGPREDGTLSLCVSGSCRTFGCDGRMDSQQVWDRCQVCGGDNSTCSPRKGSFTAGRAREYVTFLTVTPNLTSVYIANHRPLFTHLAVRIGGRYVVAGKMSISPNTTYPSLLEDGRVEYRVALTEDRLPRLEEIRIWGPLQEDADIQVYRRYGEEYGNLTRPDITFTYFQPKPRQAWVWAAVRGPCSVSCGAGLRWVNYSCLDQARKELVETVQCQGSQQPPAWPEACVLEPCPPYWAVGDFGPCSASCGGGLRERPVRCVEAQGSLLKTLPPARCRAGAQQPAVALETCNPQPCPARWEVSEPSSCTSAGGAGLALENETCVPGADGLEAPVTEGPGSVDEKLPAPEPCVGMSCPPGWGHLDATSAGEKAPSPWGSIRTGAQAAHVWTPAAGSCSVSCGRGLMELRFLCMDSALRVPVQEELCGLASKPGSRREVCQAVPCPARWQYKLAACSVSCGRGVVRRILYCARAHGEDDGEEILLDTQCQGLPRPEPQEACSLEPCPPRWKVMSLGPCSASCGLGTARRSVACVQLDQGQDVEVDEAACAALVRPEASVPCLIADCTYRWHVGTWMECSVSCGDGIQRRRDTCLGPQAQAPVPADFCQHLPKPVTVRGCWAGPCVGQGTPSLVPHEEAAAPGRTTATPAGASLEWSQARGLLFSPAPQPRRLLPGPQENSVQSSACGRQHLEPTGTIDMRGPGQADCAVAIGRPLGEVVTLRVLESSLNCSAGDMLLLWGRLTWRKMCRKLLDMTFSSKTNTLVVRQRCGRPGGGVLLRYGSQLAPETFYRECDMQLFGPWGEIVSPSLSPATSNAGGCRLFINVAPHARIAIHALATNMGAGTEGANASYILIRDTHSLRTTAFHGQQVLYWESESSQAEMEFSEGFLKAQASLRGQYWTLQSWVPEMQDPQSWKGKEGT
Kd [5]: > 500 nM | Kd [6]: 79 nM
